Blank lines part the entries; values can stand above or below the molecule they belong to.
Experiments:
HMunc18c (mouse) = HMunc18c (mouse) (UniProt Q60770); assay: ITC; Munc18 proteins (HMunc18c or Munc18a-His) at 10–20 μM with Syntaxin partners at 100–550 μM; 298 K; 25 mM HEPES pH 8, 200 mM NaCl, 2 mM β-mercaptoethanol, 10% glycerol; 16 injections of 2.45 μL; which partner was in the syringe is not said
HMunc18c = target: T1, HMunc18c (mouse, UniProt Q60770 1-592); assay: as above; conditions: both partners purified
T1 construct: pQE30 vector; also called Munc18-3; source: E. coli BL21 with GroEL/ES chaperones, purified (Ni2+ resin, SEC, MonoS if required); not shown: His6, N-terminal, kept
T1 sequence (looked up): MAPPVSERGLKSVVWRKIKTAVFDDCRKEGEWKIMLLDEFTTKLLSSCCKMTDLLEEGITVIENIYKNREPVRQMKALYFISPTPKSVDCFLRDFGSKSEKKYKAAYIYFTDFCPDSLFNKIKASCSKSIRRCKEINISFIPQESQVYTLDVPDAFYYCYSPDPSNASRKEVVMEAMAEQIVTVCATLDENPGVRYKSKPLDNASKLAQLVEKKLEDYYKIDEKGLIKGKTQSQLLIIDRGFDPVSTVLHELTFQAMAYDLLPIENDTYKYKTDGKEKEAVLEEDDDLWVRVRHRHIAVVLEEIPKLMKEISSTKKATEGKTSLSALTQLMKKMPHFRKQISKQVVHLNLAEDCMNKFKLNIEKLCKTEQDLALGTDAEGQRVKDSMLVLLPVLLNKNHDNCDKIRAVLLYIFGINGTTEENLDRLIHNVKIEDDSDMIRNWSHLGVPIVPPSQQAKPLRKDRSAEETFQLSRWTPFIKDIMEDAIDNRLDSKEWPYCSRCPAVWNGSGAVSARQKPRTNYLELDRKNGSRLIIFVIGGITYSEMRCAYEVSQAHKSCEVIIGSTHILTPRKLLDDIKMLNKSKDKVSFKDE

Kd (HMunc18c (mouse)): 730000 nM
dH (HMunc18c (mouse)): -4.44 kcal/mol
stoichiometry N (HMunc18c (mouse)): 1.07
Molecule: ΔNSx1_(25-261)-His (from UniProt P32851 25-261) (domain or fragment)

Kd (HMunc18c (mouse)): 80 nM
dH (HMunc18c (mouse)): -15.2 kcal/mol
stoichiometry N (HMunc18c (mouse)): 1.03
Molecule: Sx1_(1-261)-His (from UniProt P32851 1-261) (domain or fragment)

Kd (HMunc18c): 100 nM
dH (HMunc18c): -14.1 kcal/mol
stoichiometry N (HMunc18c): 1.03
B1: Sx4_(1-275)-His (domain or fragment, rat, UniProt Q08850 1-275, looked up)
chain: MRDRTHELRQGDNISDDEDEVRVALVVHSGAARLSSPDDEFFQKVQTIRQTMAKLESKVRELEKQQVTILATPLPEESMKQGLQNLREEIKQLGREVRAQLKAIEPQKEEADENYNSVNTRMKKTQHGVLSQQFVELINKSNSMQSEYREKNVERIRRQLKITNAGMVSDEELEQMLDSGQSEVFVSNILKDTQVTRQALNEISARHSEIQQLERSIRELHEIFTFLATEVEMQGEMINRIEKNILSSADYVERGQEHVKIALENQKKARKKKVM
notes: cloned into pET20b; also called Syntaxin4; not shown: His6, C-terminal, kept

Source: article PMC5663490 (PLoS ONE, 2017)
